From article PMC6303017, “Effects of RNA structure and salt concentration on the affinity and kinetics of interactions between pentatricopeptide repeat proteins and their RNA ligands” come the findings set out here.

Data set [1] concerns the target T1, HCF152 (UniProt Q9SF38 66-778).
T1 sequence: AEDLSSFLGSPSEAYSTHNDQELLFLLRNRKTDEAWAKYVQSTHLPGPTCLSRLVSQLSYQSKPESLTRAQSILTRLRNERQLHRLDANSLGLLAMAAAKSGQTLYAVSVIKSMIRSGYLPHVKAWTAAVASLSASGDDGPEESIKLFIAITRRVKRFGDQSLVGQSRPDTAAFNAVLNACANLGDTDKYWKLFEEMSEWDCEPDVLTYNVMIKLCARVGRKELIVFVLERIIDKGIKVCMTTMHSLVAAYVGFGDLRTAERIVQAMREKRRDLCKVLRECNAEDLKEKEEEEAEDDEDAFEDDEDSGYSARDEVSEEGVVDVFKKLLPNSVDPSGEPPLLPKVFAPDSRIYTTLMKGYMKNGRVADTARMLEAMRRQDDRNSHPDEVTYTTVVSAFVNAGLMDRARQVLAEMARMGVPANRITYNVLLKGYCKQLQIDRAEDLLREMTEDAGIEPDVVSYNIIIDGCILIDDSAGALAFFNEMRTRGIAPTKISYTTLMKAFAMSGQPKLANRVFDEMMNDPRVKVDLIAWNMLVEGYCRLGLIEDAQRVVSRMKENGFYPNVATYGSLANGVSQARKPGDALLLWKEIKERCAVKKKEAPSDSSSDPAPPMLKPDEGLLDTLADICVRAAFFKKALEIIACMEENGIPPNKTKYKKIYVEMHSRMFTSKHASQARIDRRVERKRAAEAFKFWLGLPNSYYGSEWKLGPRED
Put plainly: SPR; 150 mM NaCl; half-life ~2 h; KD ~30-fold lower than earlier EMSA; EMSA: 40 mM Tris-HCl pH 7.5, 140 mM NaCl, 10% glycerol, 4 mM DTT, 0.1 mg/mL BSA, 0.5 mg/mL heparin, RNAsin, 5 pM RNA, 25 C, 30 min; SPR: 100 mM HEPES pH 7.5, 150 mM NaCl, 3 mM EDTA, 1 mM 2-mercaptoethanol, 0.005% P20. The note with it: protein: recombinant; tags: MBP fusion, MBP cleaved off; label: 3' biotin, 6-carbon linker.

Data set [2] addresses T2, PPR10 (UniProt B8Y6I0 96-786).
T2 sequence: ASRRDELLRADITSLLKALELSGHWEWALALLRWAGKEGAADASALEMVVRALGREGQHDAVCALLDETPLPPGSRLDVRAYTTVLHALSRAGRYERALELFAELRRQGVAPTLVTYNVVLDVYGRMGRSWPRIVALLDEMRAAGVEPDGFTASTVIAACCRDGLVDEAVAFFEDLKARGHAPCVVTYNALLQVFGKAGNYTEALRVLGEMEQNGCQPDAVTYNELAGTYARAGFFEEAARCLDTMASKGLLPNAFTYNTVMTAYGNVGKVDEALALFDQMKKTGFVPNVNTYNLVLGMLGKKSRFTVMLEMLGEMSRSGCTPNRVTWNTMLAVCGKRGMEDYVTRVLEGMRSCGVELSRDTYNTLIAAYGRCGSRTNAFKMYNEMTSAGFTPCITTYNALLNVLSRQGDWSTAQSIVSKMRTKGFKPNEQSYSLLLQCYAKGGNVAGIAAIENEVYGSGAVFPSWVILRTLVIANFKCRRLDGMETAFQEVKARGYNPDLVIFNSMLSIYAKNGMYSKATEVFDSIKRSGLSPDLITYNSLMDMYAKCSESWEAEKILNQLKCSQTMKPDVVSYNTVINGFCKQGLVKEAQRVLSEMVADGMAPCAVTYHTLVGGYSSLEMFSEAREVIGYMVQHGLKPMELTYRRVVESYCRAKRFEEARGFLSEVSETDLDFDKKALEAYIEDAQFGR
In words: EMSA; 0.5 mg/mL heparin, 140 mM NaCl; EMSA: 40 mM Tris-HCl pH 7.5, 140 mM NaCl, 10% glycerol, 4 mM DTT, 0.1 mg/mL BSA, 0.5 mg/mL heparin, RNAsin, 5 pM RNA, 25 C, 30 min; SPR: 100 mM HEPES pH 7.5, 150 mM NaCl, 3 mM EDTA, 1 mM 2-mercaptoethanol, 0.005% P20. The note with it: protein: recombinant; tags: MBP fusion, MBP cleaved off; label: 5' 32P; unstructured.

For data set [3], the target named is T2, PPR10. Put plainly: SPR; 150 mM NaCl; ka ~2e7 M-1s-1; EMSA: 40 mM Tris-HCl pH 7.5, 140 mM NaCl, 10% glycerol, 4 mM DTT, 0.1 mg/mL BSA, 0.5 mg/mL heparin, RNAsin, 5 pM RNA, 25 C, 30 min; SPR: 100 mM HEPES pH 7.5, 150 mM NaCl, 3 mM EDTA, 1 mM 2-mercaptoethanol, 0.005% P20. The note with it: protein: recombinant; tags: MBP fusion, MBP cleaved off; label: 3' biotin, 6-carbon linker; unstructured.

Data set [4] deals with T1, HCF152. In words: filter binding; 30 min and overnight (~13 h); tighter apparent KD overnight; EMSA: 40 mM Tris-HCl pH 7.5, 140 mM NaCl, 10% glycerol, 4 mM DTT, 0.1 mg/mL BSA, 0.5 mg/mL heparin, RNAsin, 5 pM RNA, 25 C, 30 min; SPR: 100 mM HEPES pH 7.5, 150 mM NaCl, 3 mM EDTA, 1 mM 2-mercaptoethanol, 0.005% P20. The note with it: protein: recombinant; tags: MBP fusion, MBP cleaved off; label: 5' 32P.

B1: petB SPR RNA (ssRNA)
RNA: UGGUAGUUCGACGUGGAUUUU
Take B1: the binding result with HCF152 [1] is given as “binds”.

B2: atpH-23mer (ssRNA)
RNA: AUUGUAUCCUUAACCAUUUCUUU
Turning to B2, the Kd with PPR10 [2] was about 50 pM.

B3: atpH SPR RNA (ssRNA)
RNA: GAUUGUAUCCUUAACCAUUUCUUUU
Take B3: the Kd with PPR10 [3] was about 10 pM.

B4: petB RNA (GMS/FB) (ssRNA)
RNA: GGUAGUUCGACCGUGGA
With B4, the binding result with HCF152 [4] was “binds”.
